{
  "source": "patent US20240317853A1",
  "about": "(UNIVERSITY OF TOKYO, published 2024)",
  "binders": {"B1": {"name": "YTH-W-2C2 chimeric antibody (antibody, V domains shown)", "VH": "QVQLQQSGAELAKPGSSVKISCKASGYTFSNYDISWIKQTTGQGLDYIGYIHTGSGGTYYNEKFKGKATLTVDKSSSTAFMQLSSLTPEDTAVYYCARTPYVYYGSGYFDFWGPGTMVTVSS", "VL": "DIVMTQSPSSLAVSAGETVTINCKSSQSLLYSGNQKNYLAWYQQKPGQSPKLLIYWASTRQSGVPDRFIGSGSGTDFTLTISSVQAEDLAIYYCQQYYDTPDTFGAGTKLELKR"}},
  "molecular_target": "T1, CADM1FcΔ10 (Δ10 Fc variant formed by fusing human Fc with a CADM1 extracellular domain) (human)",
  "T1 construct": "The whole entry is the fusion (CADM1 extracellular domain, AAA linker, human IgG1 hinge-Fc); Dimerized via Fc; also called Fc10; dimerized FcΔ10",
  "T1 sequence (chain, as listed by the source mutant limits assumed)": "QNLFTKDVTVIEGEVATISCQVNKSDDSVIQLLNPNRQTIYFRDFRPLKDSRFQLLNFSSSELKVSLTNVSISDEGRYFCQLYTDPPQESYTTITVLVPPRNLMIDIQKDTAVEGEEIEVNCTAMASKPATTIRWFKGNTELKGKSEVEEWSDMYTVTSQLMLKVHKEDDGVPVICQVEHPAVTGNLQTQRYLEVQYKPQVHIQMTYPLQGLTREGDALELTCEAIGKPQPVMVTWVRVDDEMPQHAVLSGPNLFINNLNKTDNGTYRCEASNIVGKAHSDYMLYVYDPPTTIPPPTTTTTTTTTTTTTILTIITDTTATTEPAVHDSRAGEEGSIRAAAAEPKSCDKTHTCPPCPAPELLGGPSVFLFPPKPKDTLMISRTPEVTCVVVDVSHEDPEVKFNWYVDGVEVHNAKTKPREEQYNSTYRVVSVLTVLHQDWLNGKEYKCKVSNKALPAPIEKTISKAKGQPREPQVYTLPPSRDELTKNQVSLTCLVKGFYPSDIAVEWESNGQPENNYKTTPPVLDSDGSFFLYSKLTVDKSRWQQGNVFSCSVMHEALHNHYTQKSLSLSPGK",
  "experiment": "SPR (Biacore 8K), antibody amine-coupled on CM5, CADM1 as analyte, multi-cycle kinetics",
  "experimental": "The antibody was diluted with a phosphate buffered saline (PBS) at a concentration of 1 mg/ml, and was then immobilized as a ligand on a sensor chip CM5 by an amine coupling method.",
  "data": [
    {"binder": "B1", "values": [
      {"measurement": "Kd", "result": 0.64, "unit": "nM"}
    ]}
  ]
}
